Laboratory results from patent US20250066503A1, “CELL INJURY INDUCING THERAPEUTIC DRUG FOR USE IN CANCER THERAPY” (CHUGAI SEIYAKU KABUSHIKI KAISHA, priority 2016, published 2025).

What follows are binders tested against T1, human GPC3 (human, UniProt P51654 25-563) (assay: SPR).
T1 construct: range 25-563; soluble analyte; also called soluble human GPC3; glypican 3
T1 sequence (P51654 25-563 limits assumed): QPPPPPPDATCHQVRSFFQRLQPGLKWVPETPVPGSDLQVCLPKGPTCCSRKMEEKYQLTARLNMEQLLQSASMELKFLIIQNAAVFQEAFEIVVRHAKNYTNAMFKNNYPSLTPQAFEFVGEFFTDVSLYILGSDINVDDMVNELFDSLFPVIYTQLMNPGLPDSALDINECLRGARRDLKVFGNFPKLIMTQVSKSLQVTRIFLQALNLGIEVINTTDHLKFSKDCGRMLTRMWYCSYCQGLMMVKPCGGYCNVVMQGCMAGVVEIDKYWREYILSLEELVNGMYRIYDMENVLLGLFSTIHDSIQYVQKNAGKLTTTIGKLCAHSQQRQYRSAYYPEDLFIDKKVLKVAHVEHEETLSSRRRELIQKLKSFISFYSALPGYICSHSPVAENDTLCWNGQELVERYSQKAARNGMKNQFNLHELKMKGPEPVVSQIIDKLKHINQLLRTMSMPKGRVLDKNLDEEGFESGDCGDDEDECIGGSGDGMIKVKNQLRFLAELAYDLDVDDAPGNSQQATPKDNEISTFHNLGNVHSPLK

| Binder | Kd [nM] |
| --- | --- |
| H0610-G1dh/none-Hi-Kn010G3/L0163-k0 (antibody, V domains shown, one-arm) VH: QVQLVQSGAEVKKPGASVKVSCKASGYTFTDYEMHWIRQPPGQGLEWIGAIDGKTPDTAYSQKFKGRVTLTADKSTSTAYMELSSLTSEDTAVYYCTRFYSYTYWGQGTLVTVSS VL: DIVMTQSPLSLPVTPGEPASISCRSSQSLVHSNRNTYLHWYQQKPGQAPRLLIYKVSNRFSGVPDRFSGSGSGTDFTLKISRVEAEDVGVYYCYQGTQVPYTFGQGTKLEIK | 3.38 |
| H0610-G1dh/none-Hi-Kn010G3/L0186-k0 (antibody, V domains shown, one-arm) VH: QVQLVQSGAEVKKPGASVKVSCKASGYTFTDYEMHWIRQPPGQGLEWIGAIDGKTPDTAYSQKFKGRVTLTADKSTSTAYMELSSLTSEDTAVYYCTRFYSYTYWGQGTLVTVSS VL: DIVMTQSPLSLPVTPGEPASISCRSSQSLVHSNRNTYLHWYQQKPGQAPRLLIYKVSNRFSGVPDRFSGSGSGTDFTLKISRVEAEDVGVYYCGQGTQWPYTFGQGTKLEIK | 1.08 |
| H0610-G1dh/none-Hi-Kn010G3/L0173-k0 (antibody, V domains shown, one-arm) VH: QVQLVQSGAEVKKPGASVKVSCKASGYTFTDYEMHWIRQPPGQGLEWIGAIDGKTPDTAYSQKFKGRVTLTADKSTSTAYMELSSLTSEDTAVYYCTRFYSYTYWGQGTLVTVSS VL: DIVMTQSPLSLPVTPGEPASISCRSSQSLVHSNRNTYLHWYQQKPGQAPRLLIYKVSNRFSGVPDRFSGSGSGTDFTLKISRVEAEDVGVYYCGQGTQFPYTFGQGTKLEIK | 2.83 |
| H0610-G1dh/none-Hi-Kn010G3/L0187-k0 (antibody, V domains shown, one-arm) VH: QVQLVQSGAEVKKPGASVKVSCKASGYTFTDYEMHWIRQPPGQGLEWIGAIDGKTPDTAYSQKFKGRVTLTADKSTSTAYMELSSLTSEDTAVYYCTRFYSYTYWGQGTLVTVSS VL: DIVMTQSPLSLPVTPGEPASISCRSSQSLVHSNRNTYLHWYQQKPGQAPRLLIYKVSNRFSGVPDRFSGSGSGTDFTLKISRVEAEDVGVYYCGQGTQYPYTFGQGTKLEIK | 4.92 |
| H0610-G1dh/none-Hi-Kn010G3/L0168-k0 (antibody, V domains shown, one-arm) VH: QVQLVQSGAEVKKPGASVKVSCKASGYTFTDYEMHWIRQPPGQGLEWIGAIDGKTPDTAYSQKFKGRVTLTADKSTSTAYMELSSLTSEDTAVYYCTRFYSYTYWGQGTLVTVSS VL: DIVMTQSPLSLPVTPGEPASISCRSSQSLVHSNRNTYLHWYQQKPGQAPRLLIYKVSNRFSGVPDRFSGSGSGTDFTLKISRVEAEDVGVYYCGQTTQVPYTFGQGTKLEIK | 0.699 |
| H0610-G1dh/none-Hi-Kn010G3/L0180-k0 (antibody, V domains shown, one-arm) VH: QVQLVQSGAEVKKPGASVKVSCKASGYTFTDYEMHWIRQPPGQGLEWIGAIDGKTPDTAYSQKFKGRVTLTADKSTSTAYMELSSLTSEDTAVYYCTRFYSYTYWGQGTLVTVSS VL: DIVMTQSPLSLPVTPGEPASISCRSSQSLVHSNRNTYLHWYQQKPGQAPRLLIYKVSNRFSGVPDRFSGSGSGTDFTLKISRVEAEDVGVYYCGQGTQNPYTFGQGTKLEIK | 4.48 |
| H0610-G1dh/none-Hi-Kn010G3/L0175-k0 (antibody, V domains shown, one-arm) VH: QVQLVQSGAEVKKPGASVKVSCKASGYTFTDYEMHWIRQPPGQGLEWIGAIDGKTPDTAYSQKFKGRVTLTADKSTSTAYMELSSLTSEDTAVYYCTRFYSYTYWGQGTLVTVSS VL: DIVMTQSPLSLPVTPGEPASISCRSSQSLVHSNRNTYLHWYQQKPGQAPRLLIYKVSNRFSGVPDRFSGSGSGTDFTLKISRVEAEDVGVYYCGQGTQHPYTFGQGTKLEIK | 3.84 |
| H0610-G1dh/none-Hi-Kn010G3/L0181-k0 (antibody, V domains shown, one-arm) VH: QVQLVQSGAEVKKPGASVKVSCKASGYTFTDYEMHWIRQPPGQGLEWIGAIDGKTPDTAYSQKFKGRVTLTADKSTSTAYMELSSLTSEDTAVYYCTRFYSYTYWGQGTLVTVSS VL: DIVMTQSPLSLPVTPGEPASISCRSSQSLVHSNRNTYLHWYQQKPGQAPRLLIYKVSNRFSGVPDRFSGSGSGTDFTLKISRVEAEDVGVYYCGQGTQPPYTFGQGTKLEIK | 3.51 |
| H0610-G1dh/none-Hi-Kn010G3/L0167-k0 (antibody, V domains shown, one-arm) VH: QVQLVQSGAEVKKPGASVKVSCKASGYTFTDYEMHWIRQPPGQGLEWIGAIDGKTPDTAYSQKFKGRVTLTADKSTSTAYMELSSLTSEDTAVYYCTRFYSYTYWGQGTLVTVSS VL: DIVMTQSPLSLPVTPGEPASISCRSSQSLVHSNRNTYLHWYQQKPGQAPRLLIYKVSNRFSGVPDRFSGSGSGTDFTLKISRVEAEDVGVYYCGQSTQVPYTFGQGTKLEIK | 0.211 |
